Measured values from patent US20200407397A1 (RESEARCH FOUNDATION FOR THE STATE UNIVERSITY OF NEW YORK, published 2020).
Where no end group is shown, it is not given here.

How the values were obtained:
recombinant LDHA = recombinant LDHA (human, UniProt P00338 1-332); test: fluorescence anisotropy, labelled peptide with recombinant LDHA
Method: Fluorescence anisotropy was measured in triplicate using a SpectraMax i3 equipped with rhodamine fluorescence polarization module (lex\lem.535 nm/595 nm). Curve fitting was done in KaleidaGraph 4.0.

[1] = biological target: Lactate dehydrogenase A (LDHA), endogenous (human, UniProt P00338 2-332); test: anti-FLAG IP from HEK293, immunoblot for LDHA

| Binder | binding result (recombinant LDHA) | binding result [1] |
| --- | --- | --- |
| AQRMNTAFTP (also: Rhodamine B label, site not given here, Labelled form used for fluorescence anisotropy and for the ex vivo tissue treatment; also called FLCN-10-Rhod-B; Rhodamine-B-labeled FLCN-10) [FLCN-10-Rhodamine B] | binds |  |
| FLCN P228A mutant (FLAG-tagged) (other, Full FLCN protein with a point mutation in the FLCN-10 region, expressed in HEK293 cells; not shown: FLAG tag (immunoprecipitated using anti-FLAG agarose)) MNAIVALCHFCELHGPRTLFCTEVLHAPLPQGDGNEDSPGQGEQAEEEEGGIQMNSRMRAHSPAEGASVESSSPGPKKSDMCEGCRSLAAGHPGYISHDKETSIKYVSHQHPSHPQLFSIVRQACVRSLSCEVCPGREGPIFFGDEQHGFVFSHTFFIKDSLARGFQRWYSIITIMMDRIYLINSWPFLLGKVRGIIDELQGKALKVFEAEQFGCPQRAQRMNTAFTAFLHQRNGNAARSLTSLTSDDNLWACLHTSFAWLLKACGSRLTEKLLEGAPTEDTLVQMEKLADLEEESESWDNSEAEEEEKAPVLPESTEGRELTQGPAESSSLSGCGSWQPRKLPVFKSLRHMRQVLGAPSFRMLAWHVLMGNQVIWKSRDVDLVQSAFEVLRTMLPVGCVRIIPYSSQYEEAYRCNFLGLSPHVQIPPHVLSSEFAVIVEVHAAARSTLHPVGCEDDQSLSKYEFVVTSGSPVAADRVGPTILNKIEAALTNQNLSVDVVDQCLVCLKEEWMNKVKVLFKFTKVDSRPKEDTQKLLSILGASEEDNVKLLKFWMTGLSKTYKSHLMSTVRSPTASESRN |  | no binding |
| FLCN R221A mutant (FLAG-tagged) (other, Full FLCN protein with a point mutation in the FLCN-10 region, expressed in HEK293 cells; not shown: FLAG tag (immunoprecipitated using anti-FLAG agarose)) MNAIVALCHFCELHGPRTLFCTEVLHAPLPQGDGNEDSPGQGEQAEEEEGGIQMNSRMRAHSPAEGASVESSSPGPKKSDMCEGCRSLAAGHPGYISHDKETSIKYVSHQHPSHPQLFSIVRQACVRSLSCEVCPGREGPIFFGDEQHGFVFSHTFFIKDSLARGFQRWYSIITIMMDRIYLINSWPFLLGKVRGIIDELQGKALKVFEAEQFGCPQRAQAMNTAFTPFLHQRNGNAARSLTSLTSDDNLWACLHTSFAWLLKACGSRLTEKLLEGAPTEDTLVQMEKLADLEEESESWDNSEAEEEEKAPVLPESTEGRELTQGPAESSSLSGCGSWQPRKLPVFKSLRHMRQVLGAPSFRMLAWHVLMGNQVIWKSRDVDLVQSAFEVLRTMLPVGCVRIIPYSSQYEEAYRCNFLGLSPHVQIPPHVLSSEFAVIVEVHAAARSTLHPVGCEDDQSLSKYEFVVTSGSPVAADRVGPTILNKIEAALTNQNLSVDVVDQCLVCLKEEWMNKVKVLFKFTKVDSRPKEDTQKLLSILGASEEDNVKLLKFWMTGLSKTYKSHLMSTVRSPTASESRN |  | no binding |
| FLCN-F226A-FLAG (other, Expressed in HEK293 and UOK257 cells; not shown: FLAG tag) MNAIVALCHFCELHGPRTLFCTEVLHAPLPQGDGNEDSPGQGEQAEEEEGGIQMNSRMRAHSPAEGASVESSSPGPKKSDMCEGCRSLAAGHPGYISHDKETSIKYVSHQHPSHPQLFSIVRQACVRSLSCEVCPGREGPIFFGDEQHGFVFSHTFFIKDSLARGFQRWYSIITIMMDRIYLINSWPFLLGKVRGIIDELQGKALKVFEAEQFGCPQRAQRMNTAATPFLHQRNGNAARSLTSLTSDDNLWACLHTSFAWLLKACGSRLTEKLLEGAPTEDTLVQMEKLADLEEESESWDNSEAEEEEKAPVLPESTEGRELTQGPAESSSLSGCGSWQPRKLPVFKSLRHMRQVLGAPSFRMLAWHVLMGNQVIWKSRDVDLVQSAFEVLRTMLPVGCVRIIPYSSQYEEAYRCNFLGLSPHVQIPPHVLSSEFAVIVEVHAAARSTLHPVGCEDDQSLSKYEFVVTSGSPVAADRVGPTILNKIEAALTNQNLSVDVVDQCLVCLKEEWMNKVKVLFKFTKVDSRPKEDTQKLLSILGASEEDNVKLLKFWMTGLSKTYKSHLMSTVRSPTASESRN |  | no binding |
| FLCN-M222A-FLAG (other, Expressed in HEK293, UOK257 and ccRCC cells; also called M222A mutant; not shown: FLAG tag) MNAIVALCHFCELHGPRTLFCTEVLHAPLPQGDGNEDSPGQGEQAEEEEGGIQMNSRMRAHSPAEGASVESSSPGPKKSDMCEGCRSLAAGHPGYISHDKETSIKYVSHQHPSHPQLFSIVRQACVRSLSCEVCPGREGPIFFGDEQHGFVFSHTFFIKDSLARGFQRWYSIITIMMDRIYLINSWPFLLGKVRGIIDELQGKALKVFEAEQFGCPQRAQRANTAFTPFLHQRNGNAARSLTSLTSDDNLWACLHTSFAWLLKACGSRLTEKLLEGAPTEDTLVQMEKLADLEEESESWDNSEAEEEEKAPVLPESTEGRELTQGPAESSSLSGCGSWQPRKLPVFKSLRHMRQVLGAPSFRMLAWHVLMGNQVIWKSRDVDLVQSAFEVLRTMLPVGCVRIIPYSSQYEEAYRCNFLGLSPHVQIPPHVLSSEFAVIVEVHAAARSTLHPVGCEDDQSLSKYEFVVTSGSPVAADRVGPTILNKIEAALTNQNLSVDVVDQCLVCLKEEWMNKVKVLFKFTKVDSRPKEDTQKLLSILGASEEDNVKLLKFWMTGLSKTYKSHLMSTVRSPTASESRN |  | binds |
